Measured values reported in article PMC7214386, “Plasmonic biosensors fabricated by galvanic displacement reactions for monitoring biomolecular interactions in real time” (Analytical and Bioanalytical Chemistry, 2020).

T1: asialofetuin (UniProt P12763 19-359, glycoprotein presenting terminal galactose residues)
T1 construct: asialofetuin (desialylated fetuin), printed mass 48 kDa; Physically adsorbed on the gold sensor; also called ASF; source: bought: Sigma
T1 sequence (looked up): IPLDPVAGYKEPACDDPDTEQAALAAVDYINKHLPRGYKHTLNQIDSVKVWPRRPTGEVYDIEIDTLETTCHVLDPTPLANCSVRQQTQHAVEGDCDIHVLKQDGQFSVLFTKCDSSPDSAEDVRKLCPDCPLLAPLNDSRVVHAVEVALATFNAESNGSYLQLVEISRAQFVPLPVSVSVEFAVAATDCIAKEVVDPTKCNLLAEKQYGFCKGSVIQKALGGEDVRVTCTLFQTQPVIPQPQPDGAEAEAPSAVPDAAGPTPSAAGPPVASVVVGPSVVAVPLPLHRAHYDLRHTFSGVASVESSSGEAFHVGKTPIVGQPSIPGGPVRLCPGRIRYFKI


Tests used:
[1] = target: Protein A (Staphylococcus aureus) (UniProt P38507); test: LSPR (localized surface plasmon resonance, reflectance spectroscopy); PrA physically adsorbed on the nanostructured gold layer; analyte flown over in PBS pH 7.4, 0.57 ml/min; equilibrium shifts of three sensors fitted to a Langmuir isotherm
[2] = target: Protein A (Staphylococcus aureus) (UniProt P38507); test: LSPR (localized surface plasmon resonance, reflectance spectroscopy); PrA covalently coupled to the nanostructured gold layer via cysteamine/glutardialdehyde; analyte flown over in PBS pH 7.4, 0.57 ml/min; equilibrium shifts of three sensors fitted to a Langmuir isotherm
asialofetuin = target: T1, asialofetuin; test: LSPR (localized surface plasmon resonance, reflectance spectroscopy); ASF physically adsorbed on the nanostructured gold layer; analyte in lectin buffer (10 mM HEPES, 150 mM NaCl, 0.1 mM CaCl2, pH 7.5); equilibrium shifts of three sensors fitted to a Langmuir isotherm; details: both partners purified

| Kd (asialofetuin) [µM] | Molecule | Kd [1] [µM] | Kd [2] [µM] |
| --- | --- | --- | --- |
|  | immunoglobulin G (IgG, 150 kDa) from rabbit (antibody) | 0.14 | 0.15 |
| 0.49 | Erythrina cristagalli lectin (natural protein, UniProt P83410 1-239, looked up, lectin of the plant Erythrina cristagalli; printed mass 54 kDa; The printed 54 kDa probably means a dimer of the lectin chain; also called ECL; source: bought: Vector Laboratories via BIOZOL Diagnostica) VETISFSFSEFEPGNDNLTLQGAALITQSGVLQLTKINQNGMPAWDSTGRTLYTKPVHMWDSTTGTVASFETRFSFSIEQPYTRPLPADGLVFFMGPTKSKPAQGYGYLGVFNNSKQDNSYQTLAVEFDTFSNPWDPPQVPHIGIDVNSIRSIKTQPFQLDNGQVANVVIKYDAPSKILHVVLVYPSSGAIYTIAEIVDVKQVLPDWVDVGLSGATGAQRDAAETHDVYSWSFQASLPE |  |  |
